± gives the uncertainty stated by the source.
Test: self-splicing fitness, log relative to wild type (ln ratio); higher = more splicing; Tetrahymena group I intron in knt gene, E. coli kanamycin selection, DiMSum; sequences stand for … in CUCUCU…GGAGGGAAAAGUUAUCAGGCAUGCACCUGGUAGCUAGUCUUUAAACCAAUAGAUUGCAUCGGUUUAAAAGGCAAGACCGUCAAAUUGCGGGAAAGGGGUCAACAGCCGUUCAGUACCAAGUCUCAGGGGAAACUUUGAGAUGGCCUUGCAAAGGGUAUGGUAAUAAGCUGACGGACAUGGUCCUAACCACGCAGCCAAGUCCUAAGUCAACAGAUCUUCUGUUGAUAUGGAUGCAGUUCACAGACUAAAUGUCGGUCGGGGAAGAUGUAUUCUUCUCAUAAGAUAUAGUCGGACCUCUCCUUAAUGGGAGCUAGCGGAUGAAGUGAUGCAACACUGGAGCCGCUGGGAACUAAUUUGUAUGCGAAAGUAUAUUGAUUAGUUUUGGAGUACUCGUGGUCG
Method in brief: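 DiMSum derived fitness as the error-weighted combination of fold changes across replicates, kanamycin versus no kanamycin, normalised to wild type. E. coli BL21(DE3) held the library, which randomised all eight P1ex-region intron nucleotides within the knt kanamycin-resistance gene on pET-22b(+). Six replicate transformations grew overnight at 37°C or 30°C on LB agar with or without 25 μg/mL kanamycin, also containing 100 μg/mL carbenicillin, 50 μM IPTG and 0.2% rhamnose, and pooled colonies were amplicon-sequenced on an Illumina HiSeq 2500.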

| Sequence | self-splicing fitness (ln) (30 °C) | self-splicing fitness (ln) (37 °C) |
| --- | --- | --- |
| UCGGAGCAAUAUUACGUUAA | -2.69 ± 0.31 | -2.78 ± 0.32 |
| UCGUAGCAAUAUUACGAAAA | -2.3 ± 0.36 | -1.77 ± 0.46 |
| UCGUAGCAAUAUUACGAAAU | -3.8 ± 0.33 | -1.65 ± 0.26 |
| UCGUAGCAAUAUUACGACCG | -1.23 ± 0.18 | -0.438 ± 0.34 |
| UCGUAGCAAUAUUACGAGCG | -0.988 ± 0.14 | -1.13 ± 0.21 |
| UCGUAGCAAUAUUACGCACA | -2.52 ± 0.21 | -1.7 ± 0.2 |
| UCGUAGCAAUAUUACGCAUA | -1.57 ± 0.16 | -1.34 ± 0.21 |
| UCGUAGCAAUAUUACGCCAA | -3.89 ± 0.3 | -1.4 ± 0.17 |
| UCGUAGCAAUAUUACGCCUG | -0.246 ± 0.12 | 0.322 ± 0.13 |
| UCGUAGCAAUAUUACGCUGA | -2.45 ± 0.28 | -1.35 ± 0.15 |
| UCGUAGCAAUAUUACGGAGG | -2.53 ± 0.27 | -3.14 ± 0.3 |
| UCGUAGCAAUAUUACGGUAC | -4.6 ± 0.46 | -3.01 ± 0.34 |
| UCGUAGCAAUAUUACGGUAU | -2.96 ± 0.22 | -1.93 ± 0.28 |
| UCGUAGCAAUAUUACGGUUA | -1.39 ± 0.15 | -0.71 ± 0.12 |
| UCGUAGCAAUAUUACGUCAA | -2.24 ± 0.23 | -1.53 ± 0.15 |
| UCGUAGCAAUAUUACGUCAC | -1.39 ± 0.18 | -2 ± 0.38 |
| UCGUAGCAAUAUUACGUCGA | -2.49 ± 0.17 | -1.91 ± 0.15 |
| UCGUAGCAAUAUUACGUCGG | -1.49 ± 0.15 | -0.337 ± 0.17 |
| UCUAAGCAAUAUUACGAAAC | – | -2.6 ± 0.45 |
| UCUAAGCAAUAUUACGAACG | -1.64 ± 0.094 | -1.28 ± 0.11 |
| UCUAAGCAAUAUUACGAAUG | -1.16 ± 0.095 | -0.995 ± 0.12 |
| UCUAAGCAAUAUUACGACAA | -1.13 ± 0.11 | -1.33 ± 0.11 |
| UCUAAGCAAUAUUACGAGGG | -3.29 ± 0.47 | -2.61 ± 0.27 |
| UCUAAGCAAUAUUACGAUCA | -0.876 ± 0.21 | -0.379 ± 0.14 |
| UCUAAGCAAUAUUACGAUGA | -0.162 ± 0.058 | 0.0109 ± 0.072 |

| Sequence | self-splicing fitness (ln) (30 °C) | self-splicing fitness (ln) (37 °C) |
| --- | --- | --- |
| UCUAAGCAAUAUUACGCCAG | -1.18 ± 0.12 | -0.166 ± 0.16 |
| UCUAAGCAAUAUUACGCCCC | – | -1.6 ± 0.44 |
| UCUAAGCAAUAUUACGCCGU | -1.72 ± 0.12 | -1.09 ± 0.19 |
| UCUAAGCAAUAUUACGCGUC | -3.36 ± 0.24 | -2.01 ± 0.18 |
| UCUAAGCAAUAUUACGCUGA | -3.56 ± 0.41 | -2.52 ± 0.33 |
| UCUAAGCAAUAUUACGGAGG | -2.49 ± 0.26 | -3.05 ± 0.43 |
| UCUAAGCAAUAUUACGGAUC | -3.37 ± 0.37 | -3.24 ± 0.37 |
| UCUAAGCAAUAUUACGGGGA | -1.76 ± 0.11 | -0.821 ± 0.12 |
| UCUAAGCAAUAUUACGGUAG | -2.09 ± 0.11 | -0.881 ± 0.11 |
| UCUAAGCAAUAUUACGUACC | – | -1.04 ± 0.47 |
| UCUAAGCAAUAUUACGUAGC | -2.23 ± 0.19 | -1.25 ± 0.2 |
| UCUAAGCAAUAUUACGUAUG | -1.95 ± 0.089 | -1.6 ± 0.11 |
| UCUAAGCAAUAUUACGUGAC | -2.88 ± 0.23 | -2.95 ± 0.28 |
| UCUAAGCAAUAUUACGUGAU | -4.27 ± 0.22 | -2.69 ± 0.18 |
| UCUAAGCAAUAUUACGUGCG | -0.493 ± 0.1 | -0.581 ± 0.15 |
| UCUAAGCAAUAUUACGUGGU | -2.45 ± 0.12 | -2 ± 0.14 |
| UCUAAGCAAUAUUACGUUAC | -2.8 ± 0.18 | -2.09 ± 0.26 |
| UCUCAGCAAUAUUACGAAAC | -2.16 ± 0.26 | -2.29 ± 0.5 |
| UCUCAGCAAUAUUACGAAGA | -1.98 ± 0.15 | -1.21 ± 0.15 |
| UCUCAGCAAUAUUACGACUU | -1.63 ± 0.073 | -1.75 ± 0.11 |
| UCUCAGCAAUAUUACGAGGC | – | -1.54 ± 0.36 |
| UCUCAGCAAUAUUACGCCCU | -2.5 ± 0.35 | -2 ± 0.44 |
| UCUCAGCAAUAUUACGCGAA | -2.12 ± 0.17 | -1.85 ± 0.21 |
| UCUCAGCAAUAUUACGCUCA | – | -1.48 ± 0.43 |
| UCUCAGCAAUAUUACGCUGC | -3.83 ± 0.21 | -2.06 ± 0.17 |

| Sequence | self-splicing fitness (ln) (30 °C) | self-splicing fitness (ln) (37 °C) |
| --- | --- | --- |
| UCUCAGCAAUAUUACGCUUG | -3.17 ± 0.16 | -3.32 ± 0.33 |
| UCUCAGCAAUAUUACGCUUU | -3.09 ± 0.3 | -2.22 ± 0.31 |
| UCUCAGCAAUAUUACGGCAA | -2.86 ± 0.25 | -2.44 ± 0.17 |
| UCUCAGCAAUAUUACGGGGG | -3.53 ± 0.27 | -2.02 ± 0.2 |
| UCUCAGCAAUAUUACGGUAA | -2.11 ± 0.14 | -1.02 ± 0.12 |
| UCUCAGCAAUAUUACGGUCU | -3.23 ± 0.2 | -1.74 ± 0.15 |
| UCUCAGCAAUAUUACGUCAA | -3.21 ± 0.27 | -2.35 ± 0.21 |
| UCUCAGCAAUAUUACGUCAC | -3.75 ± 0.19 | -2.55 ± 0.17 |
| UCUCAGCAAUAUUACGUCCA | -2.72 ± 0.16 | -1.35 ± 0.2 |
| UCUCAGCAAUAUUACGUCGC | -2.22 ± 0.23 | -2.47 ± 0.33 |
| UCUCAGCAAUAUUACGUGCA | -0.751 ± 0.065 | -0.0852 ± 0.071 |
| UCUCAGCAAUAUUACGUGCU | -4.22 ± 0.23 | -2.61 ± 0.2 |
| UCUCAGCAAUAUUACGUGGC | -3.61 ± 0.31 | -2.55 ± 0.28 |
| UCUCAGCAAUAUUACGUGUC | -3.41 ± 0.14 | -3.2 ± 0.17 |
| UCUCAGCAAUAUUACGUUCG | -3.46 ± 0.2 | -2.28 ± 0.25 |
| UCUCAGCAAUAUUACGUUGA | -2.9 ± 0.2 | -2.93 ± 0.24 |
| UCUCAGCAAUAUUACGUUGU | -3.71 ± 0.21 | -3.39 ± 0.21 |
| UCUGAGCAAUAUUACGAACA | -3.18 ± 0.34 | -3.46 ± 0.35 |
| UCUGAGCAAUAUUACGAGAU | -3.79 ± 0.37 | -2.48 ± 0.3 |
| UCUGAGCAAUAUUACGAGUU | -2.13 ± 0.25 | – |
| UCUGAGCAAUAUUACGAUAA | – | -2.05 ± 0.43 |
| UCUGAGCAAUAUUACGAUUA | -1.85 ± 0.17 | -1.49 ± 0.21 |
| UCUGAGCAAUAUUACGCUAC | -3.66 ± 0.3 | -3.09 ± 0.47 |
| UCUGAGCAAUAUUACGCUCG | -3.7 ± 0.37 | -0.349 ± 0.23 |
| UCUGAGCAAUAUUACGCUCU | -2.96 ± 0.46 | – |

| Sequence | self-splicing fitness (ln) (30 °C) | self-splicing fitness (ln) (37 °C) |
| --- | --- | --- |
| UCUGAGCAAUAUUACGGAAU | -3.33 ± 0.34 | -1.88 ± 0.27 |
| UCUGAGCAAUAUUACGGGAC | -2.86 ± 0.4 | -2.37 ± 0.23 |
| UCUGAGCAAUAUUACGGUCG | -4.19 ± 0.33 | -2.67 ± 0.28 |
| UCUGAGCAAUAUUACGUAAA | -3.29 ± 0.19 | -1.69 ± 0.18 |
| UCUGAGCAAUAUUACGUAGA | -0.966 ± 0.1 | -0.205 ± 0.14 |
| UCUGAGCAAUAUUACGUAUC | -3.62 ± 0.25 | -1.69 ± 0.25 |
| UCUGAGCAAUAUUACGUGGG | -2.78 ± 0.14 | -0.918 ± 0.11 |
| UCUUAGCAAUAUUACGAACU | -2.7 ± 0.36 | -1.84 ± 0.25 |
| UCUUAGCAAUAUUACGAAGA | -3.02 ± 0.49 | -2.64 ± 0.38 |
| UCUUAGCAAUAUUACGAAUG | -2.87 ± 0.43 | -2.01 ± 0.38 |
| UCUUAGCAAUAUUACGAGAC | -2.23 ± 0.25 | – |
| UCUUAGCAAUAUUACGAGUA | -0.787 ± 0.26 | -1.19 ± 0.27 |
| UCUUAGCAAUAUUACGAUGC | -2.66 ± 0.3 | – |
| UCUUAGCAAUAUUACGAUUG | -2.74 ± 0.22 | -1.23 ± 0.18 |
| UCUUAGCAAUAUUACGCCUC | – | -2.31 ± 0.45 |
| UCUUAGCAAUAUUACGCGUC | -4.03 ± 0.33 | – |
| UCUUAGCAAUAUUACGCUAU | -4.16 ± 0.25 | -2.03 ± 0.18 |
| UCUUAGCAAUAUUACGGCUA | -2.85 ± 0.41 | -2.34 ± 0.42 |
| UCUUAGCAAUAUUACGGCUG | -2.71 ± 0.28 | 0.118 ± 0.24 |
| UCUUAGCAAUAUUACGUAAA | -3.58 ± 0.29 | -2.38 ± 0.25 |
| UCUUAGCAAUAUUACGUAGU | -2.27 ± 0.13 | -1.35 ± 0.14 |
| UCUUAGCAAUAUUACGUCUG | -2.67 ± 0.22 | -2.95 ± 0.37 |
| UCUUAGCAAUAUUACGUCUU | -3.21 ± 0.32 | -3 ± 0.27 |
| UCUUAGCAAUAUUACGUGAA | -1.9 ± 0.2 | -2.82 ± 0.43 |

Source: the supplement of paper PMC7877785
